In patent US10889629B2, “Transfected T-cells and T-cell receptors for use in immunotherapy against cancers” (IMMATICS BIOTECHNOLOGIES GMBH, priority 2016, dated 2021):
Entries after “also recorded” stand apart in the source; their conditions may differ.

Columns and labels:
MHC/MAG-003 complex = biological target: T1, MHC/MAG-003 complex (Homo sapiens, UniProt P04439+P43358, D140Y/D185E/D98H/E176V/E277Q/G131W/G231S/I119V/I121R/I166T/I218V/L300P/L318F/N151K/N90K/P208A/P217A/Q86G/Q94H/R138H/R169H/T345S); assay: IFN-γ release assay: TCR-RNA-electroporated CD8+ T-cells co-incubated with peptide-loaded target cells; type: cell-based; conditions: for EC50: target peptide (MAG-003) titration, IFN-γ release
T1 construct: endogenous in cells
Experimental: In another aspect, to obtain T-cells expressing TCRs of the present description, TCR RNAs were synthesized by techniques described in the art, e.g., in vitro transcription systems. The in vitro-synthesized TCR RNAs were then introduced into primary CD8+ T-cells obtained from healthy donors by electroporation to re-express tumor specific TCR-alpha and/or TCR-beta chains.
To determine specificity and affinity of TCRs, the transformed CD8+ T-cells were co-incubated with MAG-003-loaded target cells or with target cells loaded with homologous but unrelated peptide RABGAP1L-001 (SEQ ID NO:91), AXIN1-001 (SEQ ID NO:92), ANO5-001 (SEQ ID NO:93), TPX2-001 (SEQ ID NO:94), SYNE3-001 (SEQ ID NO:95), MIA3-001 (SEQ ID NO:96), HERC4-001 (SEQ ID NO:97), PSME2-001 (SEQ ID NO:98), HEATR5A-001 (SEQ ID NO:99) or CNOT1-003 (SEQ ID NO:100) or control peptide NYESO1-001 (SEQ ID NO:101), followed by IFN-γ release assay. Unloaded target cells and CD8+ T-cells alone served as controls. IFN-γ secretion from CD8+ T-cells is indicative of T-cell activation with cytotoxic activity.
As shown in FIGS. 5-7 all primary CD8+ T-cells transformed with TCRs of the present disclosure, after co-incubation with MAG-003-loaded target cells, released much higher levels of IFN-γ than that stimulated by unrelated peptide-loaded target cells, and the controls.

MHC/MAG-003 tetramer = MHC/MAG-003 tetramer (Homo sapiens, UniProt P04439+P43358, D140Y/D185E/D98H/E176V/E277Q/G131W/G231S/I119V/I121R/I166T/I218V/N151K/N90K/P208A/P217A/Q86G/Q94H/R138H/R169H); assay: Tetramer staining of TCR-RNA-electroporated CD8+ T-cells, MHC/MAG-003 tetramer; type: binding
Source text: (§1) FIG. 8 show MHC/MAG-003 tetramer or MHC/NYESO1-001 tetramer staining of CD8+ T-cells electroporated with alpha and beta chain RNA of TCRs R7P1 D5, R20P1H7 and R10P2G12 (Table 2), respectively. CD8+ T-cells electroporated with RNA of 1G4 TCR that specifically binds to MHC/NYESO1-001 complex and mock electroporated CD8+ T-cells served as controls.
(§2) T-cell activation was further confirmed using a tetramer staining technique to detect MHC/MAG-003-binding activated cytotoxic T-cells. As shown in FIG. 8 and Table 11, a higher percentage of TCR-expressing CD8+ T-cells were stained positive fluorescent-labeled MHC/MAG-003 tetramer than that with MHC/NYESO1-001 control tetramer or mock control. […] The alpha and beta chains of TCR 1G4 are shown in SEQ ID NO:89 and 90, respectively: […]

MHC/NYESO1-001 tetramer = assay: Tetramer staining of TCR-RNA-electroporated CD8+ T-cells, MHC/NYESO1-001 control tetramer; type: binding, human
Source text: as §1, §2

[1] = system: A-375 (human melanoma cell line, positive for HLA-A2 and MAG-003 expression); assay: IFNγ release, TCR-expressing CD8+ T-cells co-incubated with A-375; type: cell-based; conditions: for IFNγ release: Example 4, A-375, HLA-A2-positive and MAG-003-positive; for T-cell activation (IFN-γ release): Example 6, A-375 expressing HLA-A*02 and MAGEA4
Experimental: (§3) To determine efficacy of T-cells expressing TCRs described herein, primary CD8+ T-cells electroporated with RNA of the TCRs R7P1 D5, R20P1H7 and R10P2G12 were co-incubated with different human cancer cell lines, e.g., A-375 (human melanoma cell line, which is positive for HLA-A2 and MAG-003 expression), T98G (human glioblastoma cell line, which is HLA-A2-positive and MAG-003-negative), and SK-BR-3 (human breast cancer cell line, which is HLA-A2-negative and MAG-003-negative), followed by IFNγ release assay.
(§4) TCRs of interest were expressed in human T cells via RNA electroporation and the T cells were assessed for IFN-γ release after co-culture with different target cells, such as T2 cells loaded with different peptides as well as tumor cell lines and primary cells from healthy tissues. T-cell activation data are shown in absolute IFN-γ levels or a normalized way as indicated below.
(§5) Efficacy of CD8+ T cells expressing TCRs R7P1 D5, R10P2G12 and R20P1H7 was determined by T cell activation studies (IFN-γ release) using different tumor cell lines as target cells. The characterization of the safety profile of TCRs of interest was approached by testing the potential activation of TCR-expressing T cells upon co-culture with isolated primary cell types from healthy tissues and induced pluripotent stem cell (iPSC)-derived cell types from HLA-A*02-positive donors (Table 13). Cell types were selected in a manner to cover most of the critical organs like e.g. brain, heart and liver and different cell types as epithelium, endothelium or smooth muscle. Tumor cell lines were analyzed side-by-side as positive and negative controls.
(§6) Normalization Method for IFNγ Release: Meannorm(TCRoi;co)=[mean(TCRoi;co)−mean(TCRoi;effector only)]−[mean(mock;co)−mean(mock;effector only)]

[2] = system: T98G (human glioblastoma cell line, HLA-A2-positive and MAG-003-negative); assay: IFNγ release, TCR-expressing CD8+ T-cells co-incubated with T98G; type: cell-based; conditions: Example 4, T98G, compared with effector cell only control
Experimental: as §3

[3] = system: SK-BR-3 (human breast cancer cell line, HLA-A2-negative and MAG-003-negative); assay: IFNγ release, TCR-expressing CD8+ T-cells co-incubated with SK-BR-3; type: cell-based; conditions: Example 4, SK-BR-3, compared with effector cell only control
Experimental: as §3

[4] = system: human non-small cell cancer cell line, H1755 (NCI-H1755); assay: IFNγ release, TCR-expressing CD8+ T-cells co-incubated with H1755; type: cell-based; conditions: for T-cell activation (IFN-γ release): Example 6, NCI-H1755 expressing HLA-A*02 and MAGEA4
Experimental: as §3, §4, §5, §6

[5] = system: HLA-A*02 positive cell types from healthy tissues; assay: Safety: IFN-γ release upon co-culture with primary and iPSC-derived cell types from healthy tissues; type: cell-based, human; conditions: E:T ratio 1:1, 20 h, ELISA, normalized
Source text: FIG. 13 T cells transfected with RNA coding for TCR R7P1 D5, R10P2G12, R20P1H7, mock or the control TCR 1G4 (SEQ ID NO:X) were co-cultured with different primary human healthy tissue cells (see table 13 for abbreviations), the target negative tumor cell line MCF-7 and the MAGEA4- and NY-ESO1-positive cell lines A-375 and NCI-H1755. TCRs R7P1D5, R10P2G12, R20P1H7 and 1G4 expression in T cells was achieved by electroporation using an RNA vector. […] E:T ratio 1:1, 20,000 cells each, mean of IFN-γ release after 20 h from replicates is shown as measured by ELISA. Error bars indicate standard deviations. Results were normalized by subtraction of IFN-γ release from TCR-transfected T cells only and IFN-γ release due to co-culture of Target cells and T cells not expressing TCR of interest.
as §4, §5, §6
The respective CVnorm was calculated: CVnorm(TCRoi;co)=[CV(TCRoi;co)^2+CV(TCRoi;effector only)^2+CV(mock;co)^2+CV(mock;effector only)^2]^[½] TCRoi=effector cells expressing TCR of interest Mock=effector cells without exogenous TCR expression Co=effector cells co-cultured with target cells Effector only=effector cells not co-cultured Mean(norm)=mean IFNγ release (normalized) CV(norm)=coefficient of variation (normalized) Results: […]

B1: R7P1D5: TCR, alpha chain SEQ ID NO:55 and beta chain SEQ ID NO:63, MAG-003-specific, from HLA-A2 positive donor (protein, listed as Homo sapiens)
alpha: MKTFAGFSFLFLWLQLDCMSRGEDVEQSLFLSVREGDSSVINCTYTDSSSTYLYWYKQEPGAGLQLLTYIFSNMDMKQDQRLTVLLNKKDKHLSLRIADTQTGDSAIYFCAEYSSASKIIFGSGTRLSIRPNIQNPDPAVYQLRDSKSSDKSVCLFTDFDSQTNVSQSKDSDVYITDKTVLDMRSMDFKSNSAVAWSNKSDFACANAFNNSIIPEDTFFPSPESSCDVKLVEKSFETDTNLNFQNLSVIGFRILLLKVAGFNLLMTLRLWSS
beta: MGSWTLCCVSLCILVAKHTDAGVIQSPRHEVTEMGQEVTLRCKPISGHDYLFWYRQTMMRGLELLIYFNNNVPIDDSGMPEDRFSAKMPNASFSTLKIQPSEPRDSAVYFCASRANTGELFFGEGSRLTVLEDLKNVFPPEVAVFEPSEAEISHTQKATLVCLATGFYPDHVELSWWVNGKEVHSGVSTDPQPLKEQPALNDSRYCLSSRLRVSATFWQNPRNHFRCQVQFYGLSENDEWTQDRAKPVTQIVSAEAWGRADCGFTSESYQQGVLSATILYEILLGKATLYAVLVSALVLMAMVKRKDSRG
- EC50 (MHC/MAG-003 complex): ~3 nM
- % MAG-003 TET-positive primary CD8+ T-cells (MHC/MAG-003 tetramer): 7.99%
- % NYESO1-001 TET-positive primary CD8+ T-cells (MHC/NYESO1-001 tetramer): 0.87%
- IFNγ release [1]: IFNγ release was observed
- T-cell activation (IFN-γ release) [1]: activity
- IFNγ release [2]: basal levels of IFNγ release
- IFNγ release [3]: basal levels of IFNγ release
- IFNγ release ([4]; Example 4, H1755, data not shown): increased IFNγ release
- T-cell activation (IFN-γ release) [4]: activity
- T-cell activation (IFN-γ release) by healthy tissue cells [5]: did not lead to significant TCR-mediated recognition and T-cell activation
- T-cell activation (IFN-γ release) by healthy tissue cells ([5]; listed as R7P1 D5): no activation was observed

B2: R10P2G12: TCR, alpha chain SEQ ID NO:71 and beta chain SEQ ID NO:79, MAG-003-specific (protein, listed as Homo sapiens)
alpha: MLTASLLRAVIASICVVSSMAQKVTQAQTEISVVEKEDVTLDCVYETRDTTYYLFWYKQPPSGELVFLIRRNSFDEQNEISGRYSWNFQKSTSSFNFTITASQVVDSAVYFCALSEGNSGNTPLVFGKGTRLSVIANIQNPDPAVYQLRDSKSSDKSVCLFTDFDSQTNVSQSKDSDVYITDKTVLDMRSMDFKSNSAVAWSNKSDFACANAFNNSIIPEDTFFPSPESSCDVKLVEKSFETDTNLNFQNLSVIGFRILLLKVAGFNLLMTLRLWSS
beta: MGIRLLCRVAFCFLAVGLVDVKVTQSSRYLVKRTGEKVFLECVQDMDHENMFWYRQDPGLGLRLIYFSYDVKMKEKGDIPEGYSVSREKKERFSLILESASTNQTSMYLCASSLSSGSHQETQYFGPGTRLLVLEDLKNVFPPEVAVFEPSEAEISHTQKATLVCLATGFYPDHVELSWWVNGKEVHSGVSTDPQPLKEQPALNDSRYCLSSRLRVSATFWQNPRNHFRCQVQFYGLSENDEWTQDRAKPVTQIVSAEAWGRADCGFTSESYQQGVLSATILYEILLGKATLYAVLVSALVLMAMVKRKDSRG
- % MAG-003 TET-positive primary CD8+ T-cells (MHC/MAG-003 tetramer): 5.38%
- % NYESO1-001 TET-positive primary CD8+ T-cells (MHC/NYESO1-001 tetramer): 0.87%
- IFNγ release [1]: IFNγ release was observed
- T-cell activation (IFN-γ release) [1]: activity
- IFNγ release [2]: basal levels of IFNγ release
- IFNγ release [3]: basal levels of IFNγ release
- T-cell activation (IFN-γ release) [4]: activity
- T-cell activation (IFN-γ release) by healthy tissue cells [5]: no activation was observed; also recorded: did not lead to significant TCR-mediated recognition and T-cell activation

B3: R20P1H7: TCR, alpha chain SEQ ID NO:39 and beta chain SEQ ID NO:47, MAG-003-specific (protein, listed as Homo sapiens)
alpha: MEKMLECAFIVLWLQLGWLSGEDQVTQSPEALRLQEGESSSLNCSYTVSGLRGLFWYRQDPGKGPEFLFTLYSAGEEKEKERLKATLTKKESFLHITAPKPEDSATYLCAVQGENSGYSTLTFGKGTMLLVSPDIQNPDPAVYQLRDSKSSDKSVCLFTDFDSQTNVSQSKDSDVYITDKTVLDMRSMDFKSNSAVAWSNKSDFACANAFNNSIIPEDTFFPSPESSCDVKLVEKSFETDTNLNFQNLSVIGFRILLLKVAGFNLLMTLRLWSS
beta: MGPQLLGYVVLCLLGAGPLEAQVTQNPRYLITVTGKKLTVTCSQNMNHEYMSWYRQDPGLGLRQIYYSMNVEVTDKGDVPEGYKVSRKEKRNFPLILESPSPNQTSLYFCASSLGPGLAAYNEQFFGPGTRLTVLEDLKNVFPPEVAVFEPSEAEISHTQKATLVCLATGFYPDHVELSWWVNGKEVHSGVSTDPQPLKEQPALNDSRYCLSSRLRVSATFWQNPRNHFRCQVQFYGLSENDEWTQDRAKPVTQIVSAEAWGRADCGFTSESYQQGVLSATILYEILLGKATLYAVLVSALVLMAMVKRKDSRG
- IFNγ (MHC/MAG-003 complex; CD8+ T-cells electroporated with TCR RNA, co-incubation with MAG-003-loaded target cells): 200 to 900 pg/mL
- EC50 (MHC/MAG-003 complex): ~10 nM
- % MAG-003 TET-positive primary CD8+ T-cells (MHC/MAG-003 tetramer): 5.73%
- % NYESO1-001 TET-positive primary CD8+ T-cells (MHC/NYESO1-001 tetramer): 0.87%
- IFNγ release [1]: IFNγ release was observed
- T-cell activation (IFN-γ release) [1]: activity
- IFNγ release [2]: basal levels of IFNγ release
- IFNγ release [3]: basal levels of IFNγ release
- T-cell activation (IFN-γ release) [4]: activity
- T-cell activation (IFN-γ release) by healthy tissue cells [5]: no activation was observed; also recorded: did not lead to significant TCR-mediated recognition and T-cell activation
